In article PMC6101547 (Nucleic Acids Research, 2018):
Where two headings read alike, the source gives them in different places.

Tests used:
AUC [1] = target: the molecule itself; assay: AUC
AUC [2] = target: the molecule itself; assay: AUC; remark: listed apart in the source
AUC [3] = target: the molecule itself; assay: AUC; remark: listed apart in the source
Rim1 (mitochondrial SSB) [4] = target: T1, Rim1 (mitochondrial SSB) (Saccharomyces cerevisiae, UniProt P32445 17-135); assay: FRET titration
T1 sequence: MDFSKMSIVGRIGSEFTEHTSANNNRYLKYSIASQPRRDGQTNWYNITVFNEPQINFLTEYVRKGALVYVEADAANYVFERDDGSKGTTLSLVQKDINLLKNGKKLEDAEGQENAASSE

Rim1 (mitochondrial SSB) [5] = target: T1, Rim1 (mitochondrial SSB); assay: Cy3 fluorescence titration
Rim1 (mitochondrial SSB) [6] = target: T1, Rim1 (mitochondrial SSB); assay: FRET titration; remark: listed apart in the source
Rim1 (mitochondrial SSB) [7] = target: T1, Rim1 (mitochondrial SSB); assay: FRET titration; remark: listed apart in the source
Rim1 (mitochondrial SSB) [8] = target: T1, Rim1 (mitochondrial SSB); assay: Cy3 fluorescence titration; remark: listed apart in the source
Rim1 (mitochondrial SSB) [9] = target: T1, Rim1 (mitochondrial SSB); assay: Cy3 fluorescence titration; remark: listed apart in the source
Rim1 (mitochondrial SSB) [10] = target: T1, Rim1 (mitochondrial SSB); assay: Cy3 fluorescence titration; remark: listed apart in the source
Rim1 (mitochondrial SSB) [11] = target: T1, Rim1 (mitochondrial SSB); assay: sedimentation equilibrium
Rim1 Y85H = target: T2, Rim1 Y85H (Saccharomyces cerevisiae, UniProt P32445 17-135, Y85H); assay: sedimentation equilibrium
T2 sequence: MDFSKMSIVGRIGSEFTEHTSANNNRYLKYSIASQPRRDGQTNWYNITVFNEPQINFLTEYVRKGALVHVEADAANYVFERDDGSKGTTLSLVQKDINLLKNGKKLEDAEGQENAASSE

B1: Rim1 harboring the mutation Y85H (amino acids 17-135) (natural protein, S. cerevisiae, UniProt P32445 17-135, looked up)
chain: MDFSKMSIVGRIGSEFTEHTSANNNRYLKYSIASQPRRDGQTNWYNITVFNEPQINFLTEYVRKGALVHVEADAANYVFERDDGSKGTTLSLVQKDINLLKNGKKLEDAEGQENAASSE
**Q.** For B1, which “stoichiometry N” value (AUC [1]) is on record?
**A.** 2

**Q.** And the “stoichiometry N” value (AUC [2])?
**A.** 4

B2: Human mitochondrial SSB, mitochondrial form (amino acids 17-148) (natural protein, UniProt Q04837 17-148, looked up)
chain: ESETTTSLVLERSLNRVHLLGRVGQDPVLRQVEGKNPVTIFSLATNEMWRSGDSEVYQLGDVSQKTTWHRISVFRPGLRDVAYQYVKKGSRIYLEGKIDYGEYMDKNNVRRQATTIIADNIIFLSDQTKEKE
**Q.** Does B2 bind (AUC [3])?
**A.** binds

B3: Cy5-dT68-Cy3-T (ssDNA)
DNA: TTTTTTTTTTTTTTTTTTTTTTTTTTTTTTTTTTTTTTTTTTTTTTTTTTTTTTTTTTTTTTTTTTTTT
modifications: internal Cy3 before last T
**Q.** Does B3 bind (Rim1 (mitochondrial SSB) [4])?
**A.** binds

**Q.** Does TTTTTTTTTTTTTTTTTTTTTTTTTTTTTTTTTTTTTTT (ssDNA, internal Cy3 before last T) [dT38-Cy3-T] bind (Rim1 (mitochondrial SSB) [5])?
**A.** binds

**Q.** Does TTTTTTTTTTTTTTTTTTTTTTTTTTTTTTTTTTTTTTTTT (ssDNA, internal Cy3 before last T) [Cy5.5-dT40-Cy3-T] bind (Rim1 (mitochondrial SSB) [6])?
**A.** binds

**Q.** Does TTTTTTTTTTTTTTTTTTTTTTTTTTTTTTTTTTTTTTTTTTTTTT (ssDNA, internal Cy3 before last T) [Cy5.5-dT45-Cy3-T] bind (Rim1 (mitochondrial SSB) [7])?
**A.** binds

**Q.** Does TTTTTTTTTTTTTTTT (ssDNA, internal Cy3 before last T) [dT15-Cy3-T] bind (Rim1 (mitochondrial SSB) [8])?
**A.** binds

**Q.** Does TTTTTTTTTTTTTTTTTTTTT (ssDNA, internal Cy3 before last T) [dT20-Cy3-T] bind (Rim1 (mitochondrial SSB) [9])?
**A.** binds

**Q.** Does TTTTTTTTTTTTTTTTTTTTTTTTTTTTT (ssDNA, internal Cy3 before last T) [dT28-Cy3-T] bind (Rim1 (mitochondrial SSB) [10])?
**A.** binds

**Q.** Does TTTTTTTTTTTTTTT (ssDNA) [Cy3-labeled dT15 (AUC)] bind (Rim1 (mitochondrial SSB) [11])?
**A.** binds

**Q.** Does TTTTTTTTTTTTTTT (ssDNA) [Cy3-labeled dT15 (AUC)] bind (Rim1 Y85H)?
**A.** binds

**Q.** Does TTTTTTTTTTTTTTTTTTTT (ssDNA) [Cy3-labeled dT20 (AUC)] bind (Rim1 Y85H)?
**A.** binds
